Measured values from patent US20220312749A1 (BIOCYTOGEN PHARMACEUTICALS BEIJING, published 2022).

Columns and labels:
Assay in all cases: inferred by the filing from p-STAT5 flow cytometry on humanized mouse splenocytes
[1] = molecular target: T1, mouse IL2RG (mouse, UniProt P34902 23-369)
T1 construct: whole, on cells; also called CD132; common gamma chain
T1 sequence (looked up): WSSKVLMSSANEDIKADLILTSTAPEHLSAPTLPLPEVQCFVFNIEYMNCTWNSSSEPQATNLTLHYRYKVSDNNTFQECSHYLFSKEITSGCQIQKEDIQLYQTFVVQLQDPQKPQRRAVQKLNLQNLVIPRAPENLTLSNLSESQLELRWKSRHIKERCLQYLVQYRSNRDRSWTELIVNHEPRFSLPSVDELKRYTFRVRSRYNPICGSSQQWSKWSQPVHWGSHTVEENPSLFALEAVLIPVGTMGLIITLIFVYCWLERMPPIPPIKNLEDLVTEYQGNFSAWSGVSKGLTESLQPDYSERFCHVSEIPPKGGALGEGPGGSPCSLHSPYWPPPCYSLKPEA
Protocol: (§1) p-STAT5 is a known downstream signal in the IL2/IL2RA-mediated signaling pathway. Thus, the level of p-STAT5 in the IL2RA gene humanized mice can be detected to verify whether the IL2/IL2RA signaling pathway is functional in the humanized mice. Spleen cells from 14-week old wild-type C57BL/6 mice and IL2RA gene humanized homozygous mice were isolated (5×10⁵ cells/well, 4 wells each) and incubated in a 37° C. incubator for 30 minutes. […] Then, the stimulated cells were stained by APC Rat Anti-Mouse CD3 Molecular Complex, permeabilized, and stained by Phospho-Stat5 (Tyr694) (D47E7) XP® Rabbit mAb and Anti-rabbit IgG (H+L), F(ab′)2 Fragment (Alexa Fluor® 488 Conjugate), followed by flow cytometry analysis.

[2] = molecular target: T2, Mouse recombinant interleukin 2 (mIL2) (mouse, UniProt P04351 21-169)
T2 construct: Bought reagent; also called recombinant mouse IL2; mouse IL2
T2 sequence (looked up): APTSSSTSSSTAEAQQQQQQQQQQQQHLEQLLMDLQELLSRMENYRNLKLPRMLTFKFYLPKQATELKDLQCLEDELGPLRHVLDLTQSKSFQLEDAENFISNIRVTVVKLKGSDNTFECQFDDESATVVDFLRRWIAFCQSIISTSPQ
Protocol: as §1

[3] = molecular target: T3, mouse IL2RB (mouse, UniProt P16297 27-539)
T3 construct: whole, on cells; also called CD122
T3 sequence (looked up): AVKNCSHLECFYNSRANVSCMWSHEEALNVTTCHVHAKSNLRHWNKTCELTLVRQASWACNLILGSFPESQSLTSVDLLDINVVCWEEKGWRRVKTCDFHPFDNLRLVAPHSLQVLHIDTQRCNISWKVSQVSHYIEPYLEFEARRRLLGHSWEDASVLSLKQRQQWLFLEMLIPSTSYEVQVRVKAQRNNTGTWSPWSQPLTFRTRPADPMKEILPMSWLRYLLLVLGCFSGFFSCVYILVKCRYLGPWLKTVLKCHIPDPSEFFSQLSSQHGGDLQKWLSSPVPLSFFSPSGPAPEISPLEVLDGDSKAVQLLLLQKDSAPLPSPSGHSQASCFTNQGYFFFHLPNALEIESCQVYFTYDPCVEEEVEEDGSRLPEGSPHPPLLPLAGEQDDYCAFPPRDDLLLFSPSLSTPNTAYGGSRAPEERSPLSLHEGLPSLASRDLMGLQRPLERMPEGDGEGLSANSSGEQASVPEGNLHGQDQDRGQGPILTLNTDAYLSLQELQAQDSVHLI
Protocol: as §1

binding result [1]: binds | binding result [2]: binds | binding result [3]: binds
B1: humanized IL2RA protein (chimeric human/mouse IL2RA expressed by B-hIL2RA mice) (receptor)
chain: ELCDDDPPEIPHATFKAMAYKEGTMLNCECKRGFRRIKSGSLYMLCTGNSSHSSWDNQCQCTSSATRNTTKQVTPQPEEQKERKTTEMQSPMQPVDQASLPGHCREPPPWENEATERIYHFVVGQMVYYQCVQGYRALHRGPAESVCKMTHGKTRWTQPQLICTGEMETSQFPGEEKPQASPEGRPESETSCLVTTTDFQIQTEMAATMETSIFTTEYKVAVASCLFLLISILLLSGLTWQHRWRKSRRTI
notes: also called chimeric IL2RA; engineered mouse IL2RA after humanization
